Results on eight substances are retold here after patent publication US20030219441A1.

Experiment [1] has as its target I-A^d MHC Class II antigen on A20 cells (mouse) (UniProt P04228). The experiment in a line: method not given.
Experiment [2] deals with Recombinant human truncated Tissue Factor (tTF) (human) (UniProt P13726). The experiment can be described thus: cell-based or functional assay.
The target in experiment [3] is I-A^d MHC Class II antigen on A20 cells (mouse) (UniProt P04228). The experiment can be described thus: 125I-labelled Fab' binding to A20 cells.
Experiment [4] has as its target Recombinant human truncated Tissue Factor (tTF) (human) (UniProt P13726). The experiment can be described thus: 125I-tTF (in molar excess) tethered to A20 cells (I-A^d) through the bispecific antibody, at saturation.

Sequence of UniProt P13726 (P13726 33-251): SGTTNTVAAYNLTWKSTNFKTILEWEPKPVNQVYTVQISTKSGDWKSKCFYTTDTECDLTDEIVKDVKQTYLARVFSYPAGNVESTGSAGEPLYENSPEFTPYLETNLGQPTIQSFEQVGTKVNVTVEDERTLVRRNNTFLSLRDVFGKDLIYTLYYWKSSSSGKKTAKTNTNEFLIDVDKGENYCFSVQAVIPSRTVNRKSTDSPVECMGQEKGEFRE
Sequence of UniProt P04228 (P04228 24-256, chain 1 of 2): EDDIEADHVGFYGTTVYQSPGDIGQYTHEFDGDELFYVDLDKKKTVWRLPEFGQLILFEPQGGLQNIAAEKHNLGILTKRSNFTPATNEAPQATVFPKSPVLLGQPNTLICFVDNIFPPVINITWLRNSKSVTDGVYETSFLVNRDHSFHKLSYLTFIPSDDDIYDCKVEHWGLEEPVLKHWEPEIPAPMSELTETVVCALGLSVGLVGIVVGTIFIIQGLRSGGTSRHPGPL
Sequence of UniProt P04228 (P01921 28-265, chain 2 of 2, further chain): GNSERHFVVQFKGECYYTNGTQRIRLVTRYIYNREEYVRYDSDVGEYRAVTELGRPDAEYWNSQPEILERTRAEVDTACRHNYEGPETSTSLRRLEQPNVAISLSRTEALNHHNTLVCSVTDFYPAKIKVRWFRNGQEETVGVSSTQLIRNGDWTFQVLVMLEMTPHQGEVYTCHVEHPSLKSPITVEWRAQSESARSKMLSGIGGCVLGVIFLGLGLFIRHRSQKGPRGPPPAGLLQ

In experiment [1], B21-2 antibody returned a fold better affinity than M5/114 of 10 fold.

10H10 F(ab')2: the Coagulation time (sec) of mouse plasma added to A20 cells incubated with the reagents in experiment [2] is 160 s.

On to B21-2 F(ab')2, for which the Coagulation time (sec) of mouse plasma added to A20 cells incubated with the reagents in experiment [2] is 168 s.

As for B21-2 Fab′, in experiment [2], the Coagulation time (sec) of mouse plasma added to A20 cells incubated with the reagents amounted to 165 s. The substance further gave a concentration at which saturation of binding is reached in experiment [3] of 21.5 nM.

Turning to B21-2/OX7 bispecific antibody, in experiment [2], the Coagulation time (sec) of mouse plasma added to A20 cells incubated with the reagents was found to be 165 s; the coagulation time of mouse plasma, A20 cells incubated with 21.5 nM bispecific antibody and 69 nM tTF was 140 s.

SFR8/10H10 bispecific antibody: in experiment [2], the Coagulation time (sec) of mouse plasma added to A20 cells incubated with the reagents worked out at 154 s; the coagulation time of mouse plasma, A20 cells incubated with 21.5 nM bispecific antibody and 69 nM tTF came out at 140 s.

Consider 10H10 Fab', for which the Coagulation time (sec) of mouse plasma added to A20 cells incubated with the reagents in experiment [2] is 162 s.

B21-2/10H10 bispecific antibody: in experiment [2], the Coagulation time (sec) of mouse plasma added to A20 cells incubated with the reagents is 36 s; the coagulation time of mouse plasma, A20 cells incubated with 21.5 nM bispecific antibody and 69 nM tTF amounted to 60 s. Further, the molecules of tTF bound per A20 cell (molecules per cell) in experiment [4] is 310000.
